Measured values from patent US8722052B2, “Vaccinia virus protein A46 peptide and use thereof” (priority 2008, dated 2014).

Target: T1, CD4-TLR4 (UniProt O00206+P06332)
T1 construct: forced dimerisation of TLR4 TIR domains in the absence of LPS (by overexpressing the fusion protein CD4-TLR4); CD4 (fusion partner); expressed in transfected cells; host or cells: HEK293_TLR4, transiently transfected with 50 or 100 ng CD4/TLR4-encoding plasmid
T1 sequence (P06332+O00206 with tags, fused parts or gaps): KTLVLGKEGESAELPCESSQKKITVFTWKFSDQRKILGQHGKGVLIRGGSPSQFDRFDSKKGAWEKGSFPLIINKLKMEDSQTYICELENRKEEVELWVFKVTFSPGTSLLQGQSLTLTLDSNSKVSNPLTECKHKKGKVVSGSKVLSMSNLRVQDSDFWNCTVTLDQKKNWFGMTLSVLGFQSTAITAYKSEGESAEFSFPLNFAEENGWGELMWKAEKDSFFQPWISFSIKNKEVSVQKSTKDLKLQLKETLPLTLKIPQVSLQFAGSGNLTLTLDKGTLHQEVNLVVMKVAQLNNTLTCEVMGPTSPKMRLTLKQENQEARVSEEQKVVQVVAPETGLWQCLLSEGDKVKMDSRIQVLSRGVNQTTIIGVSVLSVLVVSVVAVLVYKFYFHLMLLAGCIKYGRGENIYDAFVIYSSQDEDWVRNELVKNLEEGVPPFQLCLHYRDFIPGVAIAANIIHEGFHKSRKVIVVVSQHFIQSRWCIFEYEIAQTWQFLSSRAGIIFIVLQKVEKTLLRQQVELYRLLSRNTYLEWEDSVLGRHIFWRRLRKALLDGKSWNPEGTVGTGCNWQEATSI
Test: ligand-independent NFκB activation by overexpressed CD4-TLR4 in HEK293_TLR4 cells
Type: cell-based
Conditions: 50 or 100 ng CD4/TLR4 plasmid, peptide 5 or 25 μM 2 or 9 hours after transfection
Protocol: FIGS. 24A and B are bar charts showing the effect of A464 on ligand-independent TLR4 signalling in HEK293 cells. HEK293_TLR4 cells were seeded in 96 well plate (1.5×10^5 cells/ml) 24 hours before transfection with NFκB-luciferase and TK-Renilla reporter gene plasmids. NFκB activation was stimulated by transfecting either 50 or 100 ng of CD4/TLR4-encoding plasmid or by stimulating with 10 ng/ml LPS. The total amount of plasmid DNA transfected into the cells was made up to 230ng by adding pcDNA. A464 (SEQ ID NO. 20) was added to the cells at a concentration of 5 or 25 μM 2 hours (A) or 9 hours (B) after the transfection or LPS-stimulation. Cells were harvested and assayed for NFκB activation by reporter gene assay 24 hours post-transfection. No peptides were added to the control wells (black bars). Data is representative of two experiments, each performed in triplicate and is expressed as mean fold induction±s.d. relative to control levels;
HEK293 cells were transfected using GeneJuice® a proprietary non-toxic transfection reagent. 200 μl/well cells at a density of 1×10^5 cells/ml were seeded the day before transfection. 0.8 μl of GeneJuice was mixed with 9.2 μl of serum-free DMEM (SFM) per transfection and incubated for 5 min at room temperature before adding the appropriate amount of the plasmid DNA. […] Luciferase activity was analysed using a luminometer. […]

Sequence: KYSFKLILAEYRRRRRRRRR [Peptide A464]
- inhibition of NFκB activated by forced dimerisation of TLR4 TIR domains (CD4-TLR4): insensitive to inhibition
